Assay results from patent US20140364363A1.

Target: insulin receptor, endogenous in 3T3-L1 preadipocytes (UniProt P15208)
Assay: cell-based or functional assay

UniProt P15208, sequence (P15208 28-1372 limits assumed): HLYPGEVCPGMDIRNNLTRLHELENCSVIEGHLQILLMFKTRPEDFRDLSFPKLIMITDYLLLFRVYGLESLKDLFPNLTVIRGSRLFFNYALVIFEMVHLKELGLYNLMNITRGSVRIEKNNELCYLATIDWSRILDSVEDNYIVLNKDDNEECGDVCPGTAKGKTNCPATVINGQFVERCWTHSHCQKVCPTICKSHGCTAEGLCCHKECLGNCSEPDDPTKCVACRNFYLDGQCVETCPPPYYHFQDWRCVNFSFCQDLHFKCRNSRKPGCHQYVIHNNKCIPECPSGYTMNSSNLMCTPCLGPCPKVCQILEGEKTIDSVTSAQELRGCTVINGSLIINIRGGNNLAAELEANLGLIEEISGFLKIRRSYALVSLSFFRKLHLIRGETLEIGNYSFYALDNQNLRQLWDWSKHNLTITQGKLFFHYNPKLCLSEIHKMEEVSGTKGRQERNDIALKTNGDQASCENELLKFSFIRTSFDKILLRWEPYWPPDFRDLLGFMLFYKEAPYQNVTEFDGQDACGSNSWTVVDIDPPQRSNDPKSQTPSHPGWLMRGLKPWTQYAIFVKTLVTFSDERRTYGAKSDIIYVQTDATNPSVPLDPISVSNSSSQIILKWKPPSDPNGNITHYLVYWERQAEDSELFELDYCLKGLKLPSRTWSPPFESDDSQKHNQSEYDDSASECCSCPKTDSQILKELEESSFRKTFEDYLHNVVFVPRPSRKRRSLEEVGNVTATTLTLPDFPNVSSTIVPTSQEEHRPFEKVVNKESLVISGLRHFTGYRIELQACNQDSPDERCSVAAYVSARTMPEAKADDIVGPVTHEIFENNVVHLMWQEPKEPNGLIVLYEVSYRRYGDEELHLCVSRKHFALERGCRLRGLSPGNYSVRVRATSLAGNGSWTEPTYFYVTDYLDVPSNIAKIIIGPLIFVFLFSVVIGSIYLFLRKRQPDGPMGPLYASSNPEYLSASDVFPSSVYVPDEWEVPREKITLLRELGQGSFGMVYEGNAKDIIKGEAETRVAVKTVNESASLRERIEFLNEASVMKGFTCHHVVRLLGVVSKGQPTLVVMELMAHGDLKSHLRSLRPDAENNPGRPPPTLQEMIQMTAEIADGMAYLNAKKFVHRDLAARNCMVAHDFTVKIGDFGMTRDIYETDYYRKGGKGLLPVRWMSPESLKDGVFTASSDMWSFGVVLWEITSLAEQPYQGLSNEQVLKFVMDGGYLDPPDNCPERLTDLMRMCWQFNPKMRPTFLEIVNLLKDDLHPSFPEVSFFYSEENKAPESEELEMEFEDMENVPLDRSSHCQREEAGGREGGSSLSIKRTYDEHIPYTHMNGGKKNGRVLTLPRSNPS

insulin-stimulated Akt-Ser473 peak phosphorylation, enhancement by overexpression [%] | insulin-stimulated ERK peak phosphorylation, enhancement by overexpression [%] | Substance
94 | 67 | Gpc4Δ529SAG531::HHHHHH (ΔGpc4), soluble mutant lacking the GPI anchor attachment site, with N-terminal 6xHis tag (from UniProt P51655 19-528; P51655 532-557)
140 | 100 | native Gpc4 with HA-tag inserted after the signal peptide, stably overexpressed in 3T3-L1 cells (from UniProt P51655 19-529)
